{
  "source": "patent US20240245805A1",
  "about": "(Orna Therapeutics, Inc., priority 2020, published 2024)",
  "molecules": {"B1": {"name": "Guereza hepacivirus (nucleic acid, listed as Hepacivirus sp.)", "chain": "CACTCAATACTACACTCCGCATTTGGGGAGAAGCGCTGGCGTTCGCGGAACCGCGTTAACCATACGCGTAGTACGAGTGCGACAGACCCCGGTGCTACTGGTGGTAGCGAGACACGAGCCGAAGTCTGTGGGGGGAACTCCACTTAGAGGGCATGCCCGGGCGTAGGCTTCTGAGTTGGGATGGGCCCCAACTTGGCCCCTGAGTGGGGGGGTGTTACGACCTGATAGGGTGCGGGCTGGCGCCTACCACTTTCCAGTCGTACATGAGTC", "modifications": "lipid formulation"}, "B2": {"name": "Equine arteritis virus (nucleic acid)", "chain": "GCTCGAAGTGTGTATGGTGCCATATACGGCTCACCACCATATACACTGCAAGAATTACTATTCTTGTGGGCCCCTCTCGGTAAATCCTAGAGGGCTTTCCTCTCGTTATTGCGAGATTCGTCGTTAGATAACGGCAAGTTCCCTTTCTTACTATCCTATTTTCATCTTGTGGCTTGACGGGTCACTGCCATCGTCGTCGATCTCTATCAACTACCCTTGCGACT", "modifications": "lipid formulation; source: /note=\"Description of Unknown: Equine arteritis virus sequence\""}, "B3": {"name": "Enterovirus AN12 (nucleic acid, listed as Enterovirus sp.)", "chain": "TACCGCTGCACCAGTGAGCTGGTACGCTAGTACCTTCGCACGGAGTAGATGGCATCCCCCACCCCGTAACTTAGAAGCAAAGTACACATCTGGCCAATAGTGGCGCTGCATCCAGCCGCGCAACGGTCAAGCACTTCTGTTTCCCCGGTCCGCAAGGGTCGTTATCCGCCCAGTCCACTACGGAAAGCCTACTAACCATTGAAGCTATCGAGAGGTTGCGCTCGGCCACGACCCCGGTGGTAGCTCTGAGTGATGGGGCTCGCAAACACCCCCGTGGTAACACGGATGCTTGCCCGCGCGTGCACTCGGGTTCAGCCTATTGGTTGTTCACCTCAACATAGTGTAAATGGCCAAGAGCCTACTGTGCTGGATTGGTTTTCCTCCGGAGCCGTGAATGCTGCTAATCCCAACCTCCGAGCGTGTGCGCACAATCCAGTGTTGCTACGTCGTAACGCGTAAGTTGGAGGCGGAACAGACTACTTTCGGTACTCCGTGTTTCTTTTGTTTTATTTTGAATTTTATGGTGACAATTGCTGAGATTTGCGAATTAGCGACTCTACCGCTGAACATTGCCCTGTACTACCTAATCGCATTTCACAAAACCTCAGAGATACCAAGCTCTTACATTGATCTGCTTGTTTTCCTGAATCTCAAATATAAATTGGAACAAGCAAA", "modifications": "lipid formulation"}, "B4": {"name": "Human coxsackievirus A2 (nucleic acid)", "DNA": "ACCTTTGTGCGCCTGTTTTATATCCCCACCCCGAGTAAACGTTAGAAGTTACGCAACCCCGATCAATAGTAGGTGTAGCACTCCAGCTGCATCGAGATCAAGCACTTCTGTCTCCCCGGACCGAGTATCAATAGACTGCTAACGCGGTTGAAGGAGAAAACGTTCGTTACCCGGCCAATTACTTCGAGAAGCCCAGTAGTGCCGTGAAAGTTGCGGAGTGTTTCGCTCAGCACTTCCCCCGTGTAGATCAGGCTGATGAGTCACCGCGATCCCCACAGGTGACTGTGGCGGTGGCTGCGTTGGCGGCCTGCCTATGGGGCAACCCATAGGACGCTCTAATACAGACATGGTGCGAAGAGCCTATTGAGCTAATTGGTAGTCCTCCGGCCCCTGAATGCGGCTAATCCTAACTGCGGAGCACATGCCCTCAAACCAGGGGGTGGTGTGTCGTAACGGGTAACTCTGCAGCGGAACCGACTACTTTGGGTGTCCGTGTTTCTTTTTATTCTTATAATGGCTGCTTATGGTGACAATTAAAGAATTGTTACCATATAGCTATTGGATTGGCCATCCGGTGACTAACAAATCGCTCATATACCAGTTTGTTGGTTTTGTTCCCTTATCACATACAGCTCATAACACCCTCTTATATTTACTACAATTGAATAGCAAGAA", "modifications": "source: /note=\"Description of Unknown: Human coxsackievirus A2 sequence\""}, "B5": {"name": "Poecivirus BCCH-449 (nucleic acid, listed as Poecivirus sp.)", "DNA": "ACTACACAATCGCAACACGCGCAAGTTTGTAGTTTGATTGGCGTGCAAATGTCAAATCAAGCATATAACACAATTTGGTGGCTGTTGGTGTTTGTTATAGGAATTTTGGTTGTGTTGAAATTGTGGATGTGTAGGAAATATGCACAATTACGTCAGCGTCAGGAGTTTTATAACCTGGCGCAACACCAAAATGGTCTTCGCGCTTTAACATCACCAGCGAGGTGTAAACAAATTGAAGTTGAATTAGATCGTGTATAGGCCAGGGAACCATCCCTCCCAACGCCACATCTTGTGGGGAAGTTGGGATAATGGTGGGTCTATATGAATTGGTCTGTAGACCCACAGTGAAGAGTGAATAGTATGCTTGCGGTTCCATTTGTTAATGGTCTAGCATGGGTGGGGGCGGCAACCCCGTGAGGGGTTCCCCACTGGCCAAAAGCCCAGGGGTTAGTCATTTCAACCAAGGAAGCTGGTAACCTGGTGACCTGAACTTGAGTGGTGAGACCCCCTTGCTAGAGTGTGTAAACCGATTGTAAGCATTTTGTTTGCTTAGTATCTGTGGTATAAGCAGTCAATTTTGTATAGGCTCAAGGCTGTGGTAGTTAGTAGATGCCCGGAAGGTTATTACTGATCCGGGGACCGTGACTATACATTAGGTAAACCGGTTTAAAAACC", "modifications": "lipid formulation"}, "B6": {"name": "Equine rhinitis B virus 1 (nucleic acid)", "chain": "CGACAGGCACAGGTCGCTCCGAGTTCTAGTAGTGTGGGAACTTGTTACTACTGATGAAACGAGGTAGTGACACTCAGTACCTGCGAACGAGGTCGGGGCCCTCCCTTCTTCCTTCACCCAACTTTCACTTTTCGTTCCACTTTAGCAGGGGTCTTCTTTCTATCCCCCTGGCGGCATTGGAACTAGCCGTCGCGTCTTAACGCGCAGCCCTGAAGGCCCCACACCTTGTGGATCTTGCCGTGGGTATGTTTCTGGCATGTGTTTCTCAAGCCTGCAACCGAAGCCGAACAGCCACATGAACAGTTTGAGCGTGGTAGCGCTGTGTGAGTTGGCGGTGGATCCCCCTCGTGGTAACACGAGCCCCCGTGGCCAAAAGCCCAGTGTTTACAGCACCTCTCACATCCAGGACGACCCCATCCTGGCGCTCACTCTTAGTAGTATGGCTTAGTACGCATTAGGTGGTAAGCCGAGCTCTCCCTCGGCCTTGTTCTGAATGCACACATGTCTAGGGGCTAAGGATGTCCTACAGGTACCCGCACGTAACCTTCAGAGAGTGCGGATCTGAGTAGGAGACCGTGGTGCACTGCTTTACAGATGCAGCCCGGTTTAAAAAGCGTCTATGCCCCTACAGGGTAGCGGTGGGCCGCGCCCTTTCCTTTTAAAACTACTTGTTCT", "modifications": "lipid formulation; source: /note=\"Description of Unknown: Equine rhinitis B virus 1 sequence\""}, "B7": {"name": "Falcon picornavirus (nucleic acid)", "chain": "CGCTTGGAATAAGTTGAGAGGAATTATGCATGCTAGTTGTGTTTGTTTACAACTAATTGTTCTAATCCAAGTGAAGCTCTTCGCTTGGGGCGGCACGACACTTGCCGTAATTCTTCTACCGTCCCTCCACACCTTGTGGATGAAGGGCCGGATGTGTGGCCTCTGGCTAACCCCTCTCTCTGGGGTGATGCTACTGGATGTTTTACTCCTAGACCAAATCACATGAACTCCTCTTGATCCACTTCGGTGGGGCTATGAGCCTGCGGATTAATAGCTGGCGACAGCTACCCCAGGGGCCAAAAGCCACGGTGTTAGCAGCACCCTCATAGTCTGATGCCCAAGGGCTGATGTTGGGAGCTAGTAGTGTGTGTCTGGCCTATGTTTAGGACTTCTGGCCAAGCGCAGAGGAGTGGGGCTGAAGGATGCCCAGAAGGTACCCGTAGGTAACCTTAAGAGACTATGGATCTGATCTGGGGCCCCCTCACGTGGCTTTACCACGTGTTGGGGGTTAAAAAACGTCTAGGCCCCACCAGCCCACGGGAGTGGGCTTTCCCTTAAAAAGCCCAACAATATTTATGGTGACAATTCACTGTTTCTTCTTTGCAATTTTTGTATTCTTGGACTCCTTATTTTTTGTTTGCTTGATTTTAGTGGACATTCAGATTCAAATACAAA", "modifications": "lipid formulation; source: /note=\"Description of Unknown: Falcon picornavirus sequence\""}, "B8": {"name": "Enterovirus sp. isolate CPML (nucleic acid, listed as Enterovirus sp.)", "chain": "ACTCTGGTATCACGGTACCTTTGCACGCCTATTTTATACCCCTTCCCCATCGTAACTTAGAAGCAACAAACAAACTGCCCAATAGCAGCACAACACCCAGTTGTGTTAGGGGCAAGCACTTCTGTTTCCCCGGAAGGGTCTGACGGTATGCTGTACCCACGGCAGAAGTATGACCTACCGTTAACCGGCCATGTACTTCGAGAAGCCTAGTACCATTATGAAGGTTGATTGATGTTACGCTCCCCAGCAACCCCAGCTGGTAGTTCTGGTCGATGAGTCTCGGCATTCCCCACGGGCGACCGTGGCCGAGGCTGCGTTGGCGGCCAGCCTACACCATACGGTGTAGGACGTCAAGATACTGACATGGTGTGAAGAGCCTATTGAGCTACGTGGTAGTCCTCCGGCCCCTGAATGCGGCTAATCCTAACTCCGGAGCATCCGCCAGTAAGCCCACTGGAAGGGTGTCGTAATGCGAAAGTCTGGAGCGGAACCGACTACTTTGGGTGTCCGTGTTTCCTGTTTTACTTATTGTTTGGCTGCTTATGGTGACAACTTATAGTTATCATCATAAGCTACTTGGTCTTGCCAACCGGAGAATTATTTGGTTATTTGTTGGTTTCATAAACCTACAGTCGTATTTTCCTGTCTTATTAATTGTTCTCAAAATTAACAACA", "modifications": "lipid formulation"}, "B9": {"name": "Equine rhinitis A virus (nucleic acid)", "chain": "AAGGGTTACTGCTCGTAATGAGAGCACATGACATTTTGCCAAGATTTCCTGGCAATTGTCACGGGAGAGAGGAGCCCGTTCTCGGGCACTTTTCTCTCAAACAATGTTGGCGCGCCTCGGCGCGCCCCCCCTTTTTCAGCCCCCTGTCATTGACTGGTCGAAGGCGCTCGCAATAAGACTGGTCGTTGCTTGGCTTTTCTATTGTTTCAGGCTTTAGCGCGCCCTTGCGCGGCGGGCCGTCAAGCCCGTGTGCTGTACAGCACCAGGTAACCGGACAGCGGCTTGCTGGATTTTCCCGGTGCCATTGCTCTGGATGGTGTCACCAAGCTGGCAGATGCGGAGTGAACCTTACGAAGCGACACACCTGTGGTAGCGCTGCCCAGAAGGGAGCGGAGCTCCCCCGCCGCGAGGCGGTCCTCTCTGGCCAAAAGCCCAGCGTTAATAGCGCCTTCTGGGATGCAGGAACCCCACCTGCCAGGTGTGAAGTGGACTAAGTGGATCTCCAATTTGGCCTGTTCTGAACTACACCATCTACTGCTGTGAAGAATGTCCTGAAGGCAAGCTGGTTACAGCCCTGATCAGGAGCCCCGCTCGTGACTCTCGATCGACGCGGGGTCAAAAACTGTCTAAGCAGCAGCAGAAACGCGGGAGCGTTTCTTTTTCCTCATTTGTTTC", "modifications": "lipid formulation; Equine rhinitis A virus"}},
  "data": [
    {"system": "HEK293 cells", "type": "cell-based, human", "details": "circular RNA encoding Gluc with the listed IRES (UTR truncated to 675 nt) transfected into HEK293 cells; supernatant after 24 hours", "values": [
      {"molecule": "B1", "Expression (luminescence from secreted Gluc protein)": "1.38E+05"},
      {"molecule": "B2", "Expression (luminescence from secreted Gluc protein)": "1.89E+05"},
      {"molecule": "B3", "Expression (luminescence from secreted Gluc protein)": "3.87E+06"},
      {"molecule": "B4", "Expression (luminescence from secreted Gluc protein)": "7.75E+07"},
      {"molecule": "B5", "Expression (luminescence from secreted Gluc protein)": "3.43E+05"},
      {"molecule": "B6", "Expression (luminescence from secreted Gluc protein)": "1.01E+05"},
      {"molecule": "B7", "Expression (luminescence from secreted Gluc protein)": "3.08E+06"},
      {"molecule": "B8", "Expression (luminescence from secreted Gluc protein)": "6.83E+07"},
      {"molecule": "B9", "Expression (luminescence from secreted Gluc protein)": "3.73E+05"}
    ]}
  ]
}
